# Data taken from patent US10556936B2, “Immunogenic proteins and fragments thereof from allergenic mites” (ALK-ABELLÓ A/S, priority 2016, dated 2020).
# B1: A025: house dust mite protein; SEQ ID NO: 17 (Der f), 18 (Der p) (protein)
# chain: QSLFVDYNDYSCGSSQNETNELIQEFKIFKKNINGNENFKKINDFIEKARLFRDNAAKQMLEIDQQLLTLNVIQISQRIKLENNKIQCEKLTKFSELLSMQLLAYEVGMFEFAEEIDPNIDFDRKMKNFLDETSRLFNLAEFEKLEKKFRNATSIEKLKNYIDGELVALNDYINEFLKDIIMSEFTVQSRYYLNFSIEDQVQIDSTLMTFSALKILLNDLKDYLEHLDN
# B2: A024: house dust mite protein; SEQ ID NO: 11 (Der f), 12 (Der p), 318 (Blo t) (protein)
# chain: MSISAHGGGLVNGIAGMENKFTVFTSGKPVSGLTVAFEGPTKPEINFNSTKDGSVDVGYIPKAGGQYKIHIKYEGKEIVGSPFKCNISGDESTHRKLTEKVKVGGPNISTGKVNQDNQLTIDCKEAGITGGISFAMEGPAKVEVSFRNNNDGTITVIYKPPTPGDYKLHLKFNDIHLPGSPYPIVVSA
# B3: A022: house dust mite protein; SEQ ID NO: 19 (Der f), 20 (Der p), 317 (Blo t) (protein)
# chain: NWQMVWQDEFNGGHLDQNHWEFETGGGGWGNNELEFYTANRSQNVRVENGHLVIDVRVESYGGRDFTSGRIHSKQAWAYGKFEARARLPSGHHLWPAIWMFPRDSKYGPWAASGEIDIMEYRGDVHDKIEGTIHYGGQWPNNIYTGSGPHHFNVDFSKDFHNFAVEWDTKEIRWYMDGNKYFSVNIDRNMWSGKGNNPYNKNGQPFDQPFRWILNVAVGGNFFGPGPYVTPDQARHWQKHTMEIDYVRVYQWR
# B4: A023: house dust mite protein; SEQ ID NO: 23 (Der f), 24 (Der p) (protein)
# chain: DPVQQRPTLRGVTVRVGPFVKENNGKFEGFIPDLVQAISEKVGFDYTLYLSPDGRYGNVISDGNVTGMIGEVYNKKADFAAADLTMTEARENYITFTEPFMINQLAALIRREDAEGLNTLEDLAKAQETFPKRKRIVLGTLRNGATNYFLSKSDDPLAKKIYEQIKADDQSVVKSISEGVERVDKQGGYAFIMESASAEHEIANNCKLTMLLDWRNLFPRKYAFALPKDSPYLEHFNNAIKQLNSEGKIAELRRKYWANNCAENKTKDDKN
# B5: Derf1: major house dust mite allergen, group 1, Dermatophagoides farinae; control (protein, UniProt P16311 99-321, looked up)
# Peptidase 1: TSACRINSVNVPSELDLRSLRTVTPIRMQGGCGSCWAFSGVAATESAYLAYRNTSLDLSEQELVDCASQHGCHGDTIPRGIEYIQQNGVVEERSYPYVAREQRCRRPNSQHYGISNYCQIYPPDVKQIREALTQTHTAIAVIIGIKDLRAFQHYDGRTIIQHDNGYQPNYHAVNIVGYGSTQGDDYWIVRNSWDTTWGDSGYGYFQAGNNLMMIEQYPYVVIM
# Test system: T cell lines obtained from HDM allergic individuals and non-allergics
# Assay: In vitro T cell proliferation test in T cell lines (Example 3)
# Type: cell-based, human
# Details: T cell lines from HDM allergic individuals (n=30); 0.5 or 2 ug/ml; 72 h
# Outline: (§1)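 Freshly isolated PBMC (5×10^6/ml) from mite-allergic patients or non-allergics cultured 5 days with test protein up to 10 ug/ml; IFN-gamma, IL-9, IL-10, IL-17, IL-31 in supernatants by multiplex immunoassay. T cell lines, raised 3 weeks on HDM extract, tested at 0.5 or 2 ug/ml protein in 72 h proliferation assay.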
row,Molecule,"% responders of in-vitro T cell proliferation test, Allergic"
1,B1,0%
2,B2,21%
3,B3,29%
4,B4,21%
5,B5,70%

# Same assay, conditions: T cell lines from non-allergics (n=8); 0.5 or 2 ug/ml; 72 h
row,Molecule,"% responders of in-vitro T cell proliferation test, Non-allergics"
1,B1,0%
2,B2,0%
3,B3,0%
4,B4,0%
5,B5,0%

# Test system: basophils in whole blood from HDM allergic donors
# Assay: Basophil Activation Test (BAT)
# Type: cell-based, human
# Details: 1 ng/ml; blood from HDM allergic individuals (n=14)
# Outline: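 Basophil activation was read by flow cytometry as increased surface activation markers. The stimulus was a 1 h exposure of blood from 14 HDM-allergic donors to test proteins or major mite allergens at graded concentrations (e.g. 1–1000 ng/ml).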
row,Molecule,# of individuals of 14 with positive BAT test
1,B1,1
2,B2,2
3,B3,0
4,B4,1
5,B5,10

# Same assay, conditions: 10 ng/ml; blood from HDM allergic individuals (n=14)
row,Molecule,# of individuals of 14 with positive BAT test
1,B1,1
2,B2,2
3,B3,0
4,B4,1
5,B5,10

# Same assay, conditions: 100 ng/ml; blood from HDM allergic individuals (n=14)
row,Molecule,# of individuals of 14 with positive BAT test
1,B1,1
2,B2,3
3,B3,3
4,B4,1
5,B5,10

# Same assay, conditions: 1000 ng/ml; blood from HDM allergic individuals (n=14)
row,Molecule,# of individuals of 14 with positive BAT test
1,B1,5
2,B2,3
3,B3,5
4,B4,1
5,B5,10

# Test system: PBMC cells obtained from mite allergic patients and non-allergics
# Assay: Ex vivo stimulation of PBMC: cytokine production (IFN-gamma, IL-9, IL-10, IL-17, IL-31)
# Type: cell-based, human
# Details: HDM allergic individuals; IL-5
# Outline: as §1
row,Molecule,% HDM allergic individuals with cytokine production in ex-vivo T cell assay IL-5
1,B1,13%
2,B2,13%
3,B3,31%
4,B4,13%
5,B5,75%

# Same assay, conditions: HDM allergic individuals; IL-9
row,Molecule,% HDM allergic individuals with cytokine production in ex-vivo T cell assay IL-9
1,B1,6%
2,B2,6%
3,B3,6%
4,B4,13%
5,B5,19%

# Same assay, conditions: HDM allergic individuals; IL-10
row,Molecule,% HDM allergic individuals with cytokine production in ex-vivo T cell assay IL-10
1,B1,6%
2,B2,25%
3,B3,6%
4,B4,6%
5,B5,50%

# Same assay, conditions: HDM allergic individuals; IL-13
row,Molecule,% HDM allergic individuals with cytokine production in ex-vivo T cell assay IL-13
1,B1,13%
2,B2,6%
3,B3,13%
4,B4,13%
5,B5,56%

# Same assay, conditions: HDM allergic individuals; IL-17
row,Molecule,% HDM allergic individuals with cytokine production in ex-vivo T cell assay IL-17
1,B1,0%
2,B2,6%
3,B3,0%
4,B4,0%
5,B5,6%

# Same assay, conditions: HDM allergic individuals; IL-31
row,Molecule,% HDM allergic individuals with cytokine production in ex-vivo T cell assay IL-31
1,B1,0%
2,B2,0%
3,B3,0%
4,B4,0%
5,B5,0%

# Same assay, conditions: HDM allergic individuals; INF-g
row,Molecule,% HDM allergic individuals with cytokine production in ex-vivo T cell assay INF-g
1,B1,0%
2,B2,0%
3,B3,0%
4,B4,0%
5,B5,0%

# Same assay, conditions: non-allergic individuals; IL-5
row,Molecule,% non-allergic individuals with cytokine production in ex-vivo T cell assay IL-5
1,B1,0%
2,B2,0%
3,B3,0%
4,B4,0%
5,B5,0%

# Same assay, conditions: non-allergic individuals; IL-9
row,Molecule,% non-allergic individuals with cytokine production in ex-vivo T cell assay IL-9
1,B1,0%
2,B2,0%
3,B3,0%
4,B4,0%
5,B5,0%

# Same assay, conditions: non-allergic individuals; IL-10
row,Molecule,% non-allergic individuals with cytokine production in ex-vivo T cell assay IL-10
1,B1,0%
2,B2,17%
3,B3,0%
4,B4,0%
5,B5,33%

# Same assay, conditions: non-allergic individuals; IL-13
row,Molecule,% non-allergic individuals with cytokine production in ex-vivo T cell assay IL-13
1,B1,0%
2,B2,0%
3,B3,0%
4,B4,0%
5,B5,0%

# Same assay, conditions: non-allergic individuals; IL-17
row,Molecule,% non-allergic individuals with cytokine production in ex-vivo T cell assay IL-17
1,B1,0%
2,B2,0%
3,B3,0%
4,B4,0%
5,B5,17%

# Same assay, conditions: non-allergic individuals; IL-31
row,Molecule,% non-allergic individuals with cytokine production in ex-vivo T cell assay IL-31
1,B1,0%
2,B2,0%
3,B3,0%
4,B4,0%
5,B5,0%

# Same assay, conditions: non-allergic individuals; INF-g
row,Molecule,% non-allergic individuals with cytokine production in ex-vivo T cell assay INF-g
1,B1,0%
2,B2,0%
3,B3,17%
4,B4,0%
5,B5,0%
